Data as given in the supplement of paper PMC10065799, “High-throughput profiling of sequence recognition by tyrosine kinases and SH2 domains using bacterial peptide display” (eLife, 2023).

How the values were obtained:
EPHB2 = EPHB2 (UniProt P29323); assay: phosphorylation enrichment, bacterial display (enrichment ratio); higher = better substrate or ligand; peptides without Tyr show the background
Fer (mouse) = assay: as above
Fyn = Fyn (UniProt P06241); assay: as above
Jak2 = Jak2 (UniProt O60674); assay: as above
FGFR3 = FGFR3 (UniProt P22607); assay: as above
FGFR3, sequence (P22607 whole entry, looked up): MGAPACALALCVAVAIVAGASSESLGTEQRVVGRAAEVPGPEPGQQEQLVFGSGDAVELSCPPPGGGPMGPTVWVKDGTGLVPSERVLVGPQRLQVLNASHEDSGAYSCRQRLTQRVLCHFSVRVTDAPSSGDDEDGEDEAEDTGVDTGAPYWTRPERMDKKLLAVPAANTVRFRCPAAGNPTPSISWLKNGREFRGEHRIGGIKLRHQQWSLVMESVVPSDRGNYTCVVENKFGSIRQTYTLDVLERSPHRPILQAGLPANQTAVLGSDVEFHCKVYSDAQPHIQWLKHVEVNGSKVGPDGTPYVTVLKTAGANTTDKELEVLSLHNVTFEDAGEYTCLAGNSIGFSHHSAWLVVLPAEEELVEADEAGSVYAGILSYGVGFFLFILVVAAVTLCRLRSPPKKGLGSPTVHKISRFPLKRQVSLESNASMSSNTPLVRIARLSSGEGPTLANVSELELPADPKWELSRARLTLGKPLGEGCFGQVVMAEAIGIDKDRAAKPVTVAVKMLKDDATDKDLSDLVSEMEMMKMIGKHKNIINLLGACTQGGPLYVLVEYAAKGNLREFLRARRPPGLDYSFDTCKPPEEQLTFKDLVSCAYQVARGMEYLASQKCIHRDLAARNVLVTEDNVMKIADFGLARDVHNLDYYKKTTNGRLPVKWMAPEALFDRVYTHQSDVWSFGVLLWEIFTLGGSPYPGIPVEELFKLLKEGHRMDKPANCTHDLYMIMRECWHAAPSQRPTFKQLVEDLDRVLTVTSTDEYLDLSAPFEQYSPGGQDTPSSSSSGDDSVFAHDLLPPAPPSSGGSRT

MERTK = MERTK (UniProt Q12866); assay: as above
Hck = Hck (UniProt P08631); assay: as above
Hck, sequence (P08631 whole entry, looked up): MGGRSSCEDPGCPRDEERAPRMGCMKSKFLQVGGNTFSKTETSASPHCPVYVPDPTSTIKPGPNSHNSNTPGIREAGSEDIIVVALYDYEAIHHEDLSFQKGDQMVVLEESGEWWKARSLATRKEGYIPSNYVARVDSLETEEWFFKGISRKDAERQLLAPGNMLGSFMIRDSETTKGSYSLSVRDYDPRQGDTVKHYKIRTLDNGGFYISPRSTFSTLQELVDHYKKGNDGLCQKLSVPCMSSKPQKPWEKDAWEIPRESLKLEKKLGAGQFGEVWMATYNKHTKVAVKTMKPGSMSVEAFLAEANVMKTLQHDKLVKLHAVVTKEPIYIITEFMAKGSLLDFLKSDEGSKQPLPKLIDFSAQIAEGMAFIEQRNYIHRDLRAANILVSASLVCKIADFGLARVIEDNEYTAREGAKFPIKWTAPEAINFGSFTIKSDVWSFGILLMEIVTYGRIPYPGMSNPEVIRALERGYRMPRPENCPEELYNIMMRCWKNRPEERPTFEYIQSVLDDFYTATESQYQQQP

c-Src = assay: as above
Fes = Fes (UniProt P07332); assay: as above
Fes, sequence (P07332 whole entry, looked up): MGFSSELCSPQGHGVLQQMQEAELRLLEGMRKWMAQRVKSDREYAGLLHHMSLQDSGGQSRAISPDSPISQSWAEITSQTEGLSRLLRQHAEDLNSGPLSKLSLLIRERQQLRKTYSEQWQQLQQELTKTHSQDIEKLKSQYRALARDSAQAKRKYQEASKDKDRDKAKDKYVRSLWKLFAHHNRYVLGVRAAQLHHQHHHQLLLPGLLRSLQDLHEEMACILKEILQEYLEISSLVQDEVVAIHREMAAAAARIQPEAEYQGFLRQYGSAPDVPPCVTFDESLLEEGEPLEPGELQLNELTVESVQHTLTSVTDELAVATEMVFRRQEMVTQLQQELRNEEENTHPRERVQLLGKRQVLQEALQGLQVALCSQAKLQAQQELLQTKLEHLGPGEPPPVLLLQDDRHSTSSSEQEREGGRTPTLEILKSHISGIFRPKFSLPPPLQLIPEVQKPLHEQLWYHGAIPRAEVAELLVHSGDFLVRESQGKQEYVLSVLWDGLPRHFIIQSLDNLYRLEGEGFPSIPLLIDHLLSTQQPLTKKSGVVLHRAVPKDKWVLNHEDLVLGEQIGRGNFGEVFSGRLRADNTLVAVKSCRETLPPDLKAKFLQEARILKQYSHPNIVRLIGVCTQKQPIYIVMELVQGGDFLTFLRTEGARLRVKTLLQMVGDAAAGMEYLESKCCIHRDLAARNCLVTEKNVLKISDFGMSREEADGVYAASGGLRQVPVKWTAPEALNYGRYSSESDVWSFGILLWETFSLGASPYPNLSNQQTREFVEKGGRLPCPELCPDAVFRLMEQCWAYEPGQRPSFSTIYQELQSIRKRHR

FGFR1 = FGFR1 (UniProt P11362); assay: as above
FGFR1, sequence (P11362 whole entry, looked up): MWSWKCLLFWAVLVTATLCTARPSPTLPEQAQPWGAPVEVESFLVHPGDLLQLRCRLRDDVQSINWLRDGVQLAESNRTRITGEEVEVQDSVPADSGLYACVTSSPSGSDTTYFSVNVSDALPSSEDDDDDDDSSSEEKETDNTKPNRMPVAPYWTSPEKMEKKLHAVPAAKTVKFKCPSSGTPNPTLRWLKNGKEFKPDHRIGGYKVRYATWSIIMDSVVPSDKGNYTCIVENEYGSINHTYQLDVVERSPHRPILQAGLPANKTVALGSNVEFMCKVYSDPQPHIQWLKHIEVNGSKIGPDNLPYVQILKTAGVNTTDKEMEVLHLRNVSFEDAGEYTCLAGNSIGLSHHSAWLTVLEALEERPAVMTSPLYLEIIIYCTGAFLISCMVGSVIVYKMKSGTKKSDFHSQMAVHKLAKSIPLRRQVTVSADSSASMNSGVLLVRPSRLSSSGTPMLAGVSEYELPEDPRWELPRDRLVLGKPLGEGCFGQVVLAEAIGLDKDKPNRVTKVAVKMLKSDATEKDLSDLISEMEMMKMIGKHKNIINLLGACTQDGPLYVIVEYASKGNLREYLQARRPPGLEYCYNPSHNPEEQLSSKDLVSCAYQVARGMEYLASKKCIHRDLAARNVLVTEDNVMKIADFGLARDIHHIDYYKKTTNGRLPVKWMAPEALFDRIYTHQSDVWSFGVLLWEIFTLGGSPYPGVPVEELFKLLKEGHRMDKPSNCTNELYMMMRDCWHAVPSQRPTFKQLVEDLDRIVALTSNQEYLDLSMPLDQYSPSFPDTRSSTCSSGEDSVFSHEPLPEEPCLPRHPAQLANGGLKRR

EPHB1 = EPHB1 (UniProt P54762); assay: as above
EPHB1, sequence (P54762 whole entry, looked up): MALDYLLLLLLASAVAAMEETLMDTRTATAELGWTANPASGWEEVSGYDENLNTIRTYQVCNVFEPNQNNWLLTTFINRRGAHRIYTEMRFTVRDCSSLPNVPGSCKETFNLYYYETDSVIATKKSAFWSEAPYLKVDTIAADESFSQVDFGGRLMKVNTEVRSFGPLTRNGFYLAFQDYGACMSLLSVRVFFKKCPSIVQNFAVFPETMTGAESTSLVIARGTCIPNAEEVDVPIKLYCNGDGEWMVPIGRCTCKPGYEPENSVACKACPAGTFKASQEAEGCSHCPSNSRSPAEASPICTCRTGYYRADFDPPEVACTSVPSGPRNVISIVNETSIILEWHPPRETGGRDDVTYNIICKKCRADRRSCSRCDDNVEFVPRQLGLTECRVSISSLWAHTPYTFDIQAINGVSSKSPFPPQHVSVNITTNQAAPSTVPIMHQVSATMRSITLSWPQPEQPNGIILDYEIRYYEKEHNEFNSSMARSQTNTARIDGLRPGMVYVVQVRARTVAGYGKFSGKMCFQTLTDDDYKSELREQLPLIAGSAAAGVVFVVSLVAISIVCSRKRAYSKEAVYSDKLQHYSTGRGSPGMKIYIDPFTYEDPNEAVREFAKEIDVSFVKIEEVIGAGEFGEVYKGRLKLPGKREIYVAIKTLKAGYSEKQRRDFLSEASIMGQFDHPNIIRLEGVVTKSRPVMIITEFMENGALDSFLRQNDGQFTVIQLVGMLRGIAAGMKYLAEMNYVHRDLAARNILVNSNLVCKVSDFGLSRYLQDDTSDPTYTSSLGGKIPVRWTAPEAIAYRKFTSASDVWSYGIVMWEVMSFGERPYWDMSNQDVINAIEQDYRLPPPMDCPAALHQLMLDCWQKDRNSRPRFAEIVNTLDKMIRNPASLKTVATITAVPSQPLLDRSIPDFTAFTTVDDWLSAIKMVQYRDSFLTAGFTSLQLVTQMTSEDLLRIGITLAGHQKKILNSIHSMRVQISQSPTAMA

c-Abl (mouse) = assay: as above
AncSZ = assay: as above
SHP2-C SH2 = assay: SH2 binding enrichment of the phosphorylated peptide, bacterial display (enrichment ratio); higher = better substrate or ligand; peptides without Tyr show the background
Grb2 SH2 = Grb2 SH2 (UniProt P62993); assay: as above
c-Src SH2 = assay: as above
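Wherever SH2 binding enrichment of the phosphorylated peptide, bacterial display is given: peptide library displayed on the E. coli surface as eCPX fusions, selected cells deep-sequenced, score is each peptide's frequency after selection divided by its frequency in the input.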
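Wherever phosphorylation enrichment, bacterial display is given: 11-residue human phosphosite peptides and single-mutation variants displayed on the E. coli surface, counted by deep sequencing, each peptide's frequency after selection divided by its frequency in the unselected input library; frequency after pTyr selection over input frequency; kinase dosed for 20-30% of maximal phosphorylation in three min.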

Fyn, sequence (P06241 whole entry, looked up): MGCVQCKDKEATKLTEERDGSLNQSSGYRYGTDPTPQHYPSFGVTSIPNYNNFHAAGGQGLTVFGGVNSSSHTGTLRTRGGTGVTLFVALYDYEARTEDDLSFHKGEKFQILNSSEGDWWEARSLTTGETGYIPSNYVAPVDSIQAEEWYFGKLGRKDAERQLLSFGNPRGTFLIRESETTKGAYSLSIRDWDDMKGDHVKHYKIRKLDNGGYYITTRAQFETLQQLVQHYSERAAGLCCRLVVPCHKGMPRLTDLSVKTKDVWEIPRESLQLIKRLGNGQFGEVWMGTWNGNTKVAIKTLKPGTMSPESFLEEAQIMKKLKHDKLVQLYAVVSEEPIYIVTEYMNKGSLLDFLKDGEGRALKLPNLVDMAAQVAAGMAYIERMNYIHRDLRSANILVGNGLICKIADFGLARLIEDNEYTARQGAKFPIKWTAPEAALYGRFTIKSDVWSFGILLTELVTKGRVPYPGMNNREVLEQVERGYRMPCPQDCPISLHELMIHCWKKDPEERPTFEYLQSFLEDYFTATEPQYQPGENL

Row | SH2 binding enrichment (SHP2-C SH2) | SH2 binding enrichment (Grb2 SH2) | SH2 binding enrichment (c-Src SH2) | Sequence | phosphorylation enrichment (EPHB2) | phosphorylation enrichment (Fer (mouse)) | phosphorylation enrichment (Fyn) | phosphorylation enrichment (Jak2) | phosphorylation enrichment (FGFR3) | phosphorylation enrichment (MERTK) | phosphorylation enrichment (Hck) | phosphorylation enrichment (c-Src) | phosphorylation enrichment (Fes) | phosphorylation enrichment (FGFR1) | phosphorylation enrichment (EPHB1) | phosphorylation enrichment (c-Abl (mouse)) | phosphorylation enrichment (AncSZ)
1 | 1.72 | 1.86 | 1.51 | HIILLYIFLKN [STXBP1_Y411_R406H] | 0.567 | 0.495 | 0.447 | 1.16 | 1.08 | 0.657 | 0.501 | 0.568 | 1.6 | 0.755 | 0.906 | 1.2 | 1.27
2 | 0.884 | 0.755 | 0.576 | HLATEYVFSDF [PANX1_Y10_Q5H] | 1.04 | 0.788 | 0.935 | 1.17 | 1.23 | 0.639 | 0.661 | 1.28 | 1.39 | 1.67 | 0.808 | 0.863 | 2.12
3 | 0.642 | 0.981 | 0.422 | HLITAYRAHGF [PDHA1_Y118] | 0.389 | 0.489 | 0.551 | 0.408 | 0.609 | 0.369 | 0.536 | 0.344 | 0.74 | 0.701 | 0.572 | 0.309 | 0.648
4 | 0.606 | 0.954 | 0.777 | HNELYYEAAEH [VANGL1_Y345_E347A] | 1.06 | 7.27 | 1.52 | 1.16 | 4.38 | 5.06 | 2.1 | 1.79 | 1.44 | 5.49 | 1.12 | 0.854 | 1.56
5 | 0.666 | 1.04 | 0.401 | HQNGTYGLHQD [SGSH_Y89_M88T] | 0.541 | 0.431 | 0.61 | 0.459 | 0.727 | 0.414 | 0.753 | 0.599 | 0.764 | 0.71 | 0.418 | 0.555 | 0.615
6 | 0.979 | 0.938 | 0.667 | HVIKLFGACSQ [RET_Y791_Y791F] | 0.995 | 0.763 | 0.816 | 0.994 | 1.26 | 0.719 | 0.855 | 0.519 | 1.75 | 0.709 | 1.01 | 1.1 | 1.52
7 | 0.634 | 0.735 | 0.59 | HYECKYVINAI [MAOA_Y268] | 0.788 | 0.506 | 0.507 | 0.95 | 0.957 | 0.66 | 0.657 | 0.859 | 1.61 | 0.557 | 0.841 | 0.86 | 1.38
8 | 1.12 | 1.09 | 1.13 | ICANKYMVKSC [RPL10_Y75] | 0.445 | 0.464 | 0.406 | 0.735 | 0.514 | 0.409 | 0.424 | 0.44 | 0.815 | 0.385 | 0.476 | 0.524 | 0.719
9 | 0.744 | 0.758 | 0.417 | IDSTPYRQWFE [RPS8_Y109_YF] | 0.464 | 0.406 | 0.302 | 0.855 | 0.551 | 0.357 | 0.442 | 0.368 | 0.856 | 0.494 | 0.487 | 0.665 | 0.739
10 | 0.604 | 1.02 | 0.465 | IENKLYGTSDP [RET_Y1062_M1064T] | 0.544 | 0.549 | 0.59 | 0.817 | 0.559 | 0.526 | 0.553 | 0.509 | 0.869 | 0.527 | 0.563 | 0.818 | 0.858
11 | 1.02 | 0.789 | 0.524 | IENPQYFSDAC [NTRK1_Y496] | 0.616 | 0.524 | 0.516 | 1.14 | 0.962 | 0.546 | 0.626 | 0.542 | 1.24 | 0.673 | 0.648 | 1.01 | 1.13
12 | 0.766 | 1.03 | 1.01 | IFKAAYFGVFD [SLC25A4_Y191_R188K_YF] | 0.524 | 0.534 | 0.544 | 1.08 | 0.65 | 0.531 | 0.504 | 0.625 | 1.21 | 0.529 | 0.587 | 0.773 | 1.1
13 | 0.649 | 0.817 | 1.8 | ILGRYYETGSI [PAX2_Y73] | 0.594 | 0.459 | 0.562 | 0.643 | 0.834 | 0.707 | 0.49 | 0.455 | 0.68 | 0.848 | 0.546 | 0.535 | 0.685
14 | 1.03 | 0.762 | 0.427 | IQTDGDRAPEA [UHMK1_Y197_Y197D] | 0.702 | 0.595 | 0.466 | 0.96 | 0.88 | 0.487 | 0.655 | 0.536 | 1.35 | 0.602 | 0.636 | 0.79 | 1.08

Further lines, the sequence ahead of its results:

Row | Sequence | SH2 binding enrichment (SHP2-C SH2) | SH2 binding enrichment (Grb2 SH2) | SH2 binding enrichment (c-Src SH2) | phosphorylation enrichment (EPHB2) | phosphorylation enrichment (Fer (mouse)) | phosphorylation enrichment (Fyn) | phosphorylation enrichment (Jak2) | phosphorylation enrichment (FGFR3) | phosphorylation enrichment (MERTK) | phosphorylation enrichment (Hck) | phosphorylation enrichment (c-Src) | phosphorylation enrichment (Fes) | phosphorylation enrichment (FGFR1) | phosphorylation enrichment (EPHB1) | phosphorylation enrichment (c-Abl (mouse)) | phosphorylation enrichment (AncSZ)
15 | HILQLYRCREE [ALPK3_Y342_T338I] | 0.748 | 0.729 | 0.546 | 0.705 | 0.556 | 0.65 | 0.709 | 0.871 | 0.515 | 0.553 | 0.577 | 1.05 | 0.763 | 0.924 | 0.423 | 0.945
16 | HKETGYVVERP [BCLAF1_Y466_L461H] | 0.401 | 0.747 | 0.394 | 0.502 | 0.439 | 0.497 | 1.14 | 0.656 | 0.445 | 0.448 | 0.652 | 1.36 | 0.582 | 0.475 | 1.28 | 0.746
17 | HKLSSYEYDFE [BTK_Y40_Y39S] | 0.411 | 0.69 | 1.33 | 0.789 | 1.03 | 0.72 | 1.38 | 1.04 | 0.911 | 0.952 | 1.43 | 1.51 | 0.952 | 0.822 | 0.966 | 1.84
18 | HLSPEYKQNEI [GJB1_Y243_R238H] | 0.683 | 0.905 | 0.611 | 1.33 | 0.418 | 0.594 | 0.874 | 0.728 | 0.676 | 0.614 | 0.532 | 1.07 | 0.857 | 0.68 | 0.716 | 0.966
19 | HNGVSYFINLC [IGF2R_Y2024_YF] | 0.573 | 0.755 | 0.439 | 0.822 | 0.587 | 0.659 | 2.2 | 0.997 | 0.613 | 0.618 | 0.668 | 2.08 | 0.783 | 1.17 | 1.24 | 1.57
20 | HNLDFYKQTTN [FGFR3_Y648_K650Q_YF] | 0.488 | 0.874 | 0.395 | 0.494 | 0.409 | 0.368 | 0.793 | 0.631 | 0.581 | 0.455 | 0.409 | 1.35 | 0.581 | 0.623 | 0.683 | 0.948
21 | HNLPIYEGFAL [ACTA1_Y168_V165L_YF] | 0.721 | 0.837 | 0.579 | 24.3 | 21.9 | 14.1 | 0.996 | 1.13 | 12.6 | 12.8 | 9.44 | 2.8 | 0.677 | 17.5 | 14 | 1.86
22 | HRTLVYGGIFL [FBP1_Y259] | 0.493 | 0.747 | 0.358 | 0.84 | 1.01 | 5.36 | 1.07 | 1.01 | 0.532 | 3.69 | 3.83 | 1.38 | 0.704 | 0.677 | 1.06 | 1.19
23 | HSFQCYGQNEA [ENTPD3_Y262_R264Q] | 0.62 | 0.968 | 0.596 | 0.452 | 0.382 | 0.535 | 1.21 | 0.71 | 0.422 | 0.701 | 0.441 | 1 | 0.604 | 0.551 | 0.793 | 0.996
24 | HSLHDYKEALM [ADA2_Y337] | 0.426 | 0.702 | 0.418 | 0.448 | 0.44 | 0.444 | 0.696 | 0.567 | 0.431 | 0.342 | 0.522 | 0.844 | 0.371 | 0.546 | 0.664 | 0.663
25 | HSVVQYVGGVM [FGGY_Y136_L134V] | 2.89 | 0.885 | 0.465 | 0.572 | 0.643 | 0.465 | 0.726 | 0.629 | 0.603 | 0.609 | 0.491 | 0.911 | 0.447 | 0.517 | 0.61 | 0.989
26 | IDNKMYDPKMN [ENPP1_Y280] | 0.623 | 1.17 | 0.578 | 0.362 | 0.355 | 0.404 | 0.385 | 0.471 | 0.304 | 0.478 | 0.344 | 0.729 | 0.553 | 0.369 | 0.41 | 0.699
27 | IFGVSYGEYRY [CFTR_Y512_D513G] | 1.1 | 1.05 | 0.933 | 0.691 | 0.736 | 7.22 | 0.858 | 0.819 | 0.537 | 4.11 | 5.62 | 1.33 | 0.603 | 0.852 | 0.632 | 0.9
28 | IGEVVYQWAVM [GRIN2A_Y502_R504W] | 0.61 | 0.845 | 0.532 | 0.598 | 7.77 | 1.16 | 1.17 | 1.15 | 0.904 | 1.1 | 1.47 | 1.48 | 1.03 | 0.89 | 1.57 | 2.06
29 | IGMSSYVMLAS [GGCX_Y301_F299S] | 1.79 | 0.771 | 1.43 | 0.655 | 0.522 | 0.496 | 1.66 | 1.36 | 0.878 | 0.452 | 0.546 | 1.2 | 1.88 | 0.853 | 0.875 | 1.34
30 | IHETTYNSIMK [ACTA1_Y281] | 1.68 | 0.862 | 1.93 | 0.338 | 0.414 | 0.746 | 0.477 | 0.436 | 0.3 | 1.38 | 1.04 | 0.711 | 0.384 | 0.332 | 0.572 | 0.475
31 | IIWDSYTTNKM [GNB4_Y85] | 0.886 | 0.941 | 0.438 | 0.656 | 0.527 | 0.682 | 0.873 | 0.671 | 0.401 | 0.506 | 0.321 | 1.21 | 0.575 | 0.68 | 0.596 | 1.3
32 | IKEFKYGIEEH [GJA1_Y137_K134E] | 0.489 | 0.856 | 0.457 | 0.464 | 0.402 | 0.349 | 0.581 | 0.684 | 0.342 | 0.42 | 0.365 | 0.918 | 0.508 | 0.39 | 0.612 | 0.836
33 | ILTLKYLIEHG [ACTG1_Y69_P70L] | 1.03 | 1.25 | 0.88 | 0.618 | 0.562 | 0.526 | 1.08 | 0.839 | 0.463 | 0.557 | 0.483 | 1.32 | 0.466 | 0.689 | 0.84 | 1.05
